From patent US20070004010A1, “Engineered Enzymes and Their Use for Synthesis of Thioglycosides” (THE UNIVERSITY OF BRITISH COLUMBIA, priority 2002, published 2007)

Tested on: not listed separately
Experiment: Saturation mutagenesis at the acid/base position (E171) of Abg: thioligase functionality
Type: biochemical, Agrobacterium sp.

Molecule	functionality as thioligase
Abg E171G: acid/base position (E171) mutant of the β-glucosidase from Agrobacterium sp. (Abg) (protein, UniProt P12614 1-459, looked up, variant E171G) Beta-glucosidase: MTDPNTLAARFPGDFLFGVATASFQIEGSTKADGRKPSIWDAFCNMPGHVFGRHNGDIACDHYNRWEEDLDLIKEMGVEAYRFSLAWPRIIPDGFGPINEKGLDFYDRLVDGCKARGIKTYATLYHWDLPLTLMGDGGWASRSTAHAFQRYAKTVMARLGDRLDAVATFNGPWCAVWLSHLYGVHAPGERNMEAALAAMHHINLAHGFGVEASRHVAPKVPVGLVLNAHSAIPASDGEADLKAAERAFQFHNGAFFDPVFKGEYPAEMMEALGDRMPVVEAEDLGIISQKLDWWGLNYYTPMRVADDATPGVEFPATMPAPAVSDVKTDIGWEVYAPALHTLVETLYERYDLPECYITENGACYNMGVENGQVNDQPRLDYYAEHLGIVADLIRDGYPMRGYFAWSLMDNFEWAEGYRMRFGLVHVDYQTQVRTVKNSGKWYSALASGFPKGNHGVAKG	functionality as thioligases
Abg E171Q: acid/base position (E171) mutant of the β-glucosidase from Agrobacterium sp. (Abg) (protein, UniProt P12614 1-459, looked up, variant E171Q) Beta-glucosidase: MTDPNTLAARFPGDFLFGVATASFQIEGSTKADGRKPSIWDAFCNMPGHVFGRHNGDIACDHYNRWEEDLDLIKEMGVEAYRFSLAWPRIIPDGFGPINEKGLDFYDRLVDGCKARGIKTYATLYHWDLPLTLMGDGGWASRSTAHAFQRYAKTVMARLGDRLDAVATFNQPWCAVWLSHLYGVHAPGERNMEAALAAMHHINLAHGFGVEASRHVAPKVPVGLVLNAHSAIPASDGEADLKAAERAFQFHNGAFFDPVFKGEYPAEMMEALGDRMPVVEAEDLGIISQKLDWWGLNYYTPMRVADDATPGVEFPATMPAPAVSDVKTDIGWEVYAPALHTLVETLYERYDLPECYITENGACYNMGVENGQVNDQPRLDYYAEHLGIVADLIRDGYPMRGYFAWSLMDNFEWAEGYRMRFGLVHVDYQTQVRTVKNSGKWYSALASGFPKGNHGVAKG	functionality as thioligases
E171N: acid/base position (E171) mutant of Abg (protein, UniProt P12614 1-459, looked up, variant E171N) Beta-glucosidase: MTDPNTLAARFPGDFLFGVATASFQIEGSTKADGRKPSIWDAFCNMPGHVFGRHNGDIACDHYNRWEEDLDLIKEMGVEAYRFSLAWPRIIPDGFGPINEKGLDFYDRLVDGCKARGIKTYATLYHWDLPLTLMGDGGWASRSTAHAFQRYAKTVMARLGDRLDAVATFNNPWCAVWLSHLYGVHAPGERNMEAALAAMHHINLAHGFGVEASRHVAPKVPVGLVLNAHSAIPASDGEADLKAAERAFQFHNGAFFDPVFKGEYPAEMMEALGDRMPVVEAEDLGIISQKLDWWGLNYYTPMRVADDATPGVEFPATMPAPAVSDVKTDIGWEVYAPALHTLVETLYERYDLPECYITENGACYNMGVENGQVNDQPRLDYYAEHLGIVADLIRDGYPMRGYFAWSLMDNFEWAEGYRMRFGLVHVDYQTQVRTVKNSGKWYSALASGFPKGNHGVAKG	functionality as thioligases
E171I: acid/base position (E171) mutant of Abg (protein, UniProt P12614 1-459, looked up, variant E171I) Beta-glucosidase: MTDPNTLAARFPGDFLFGVATASFQIEGSTKADGRKPSIWDAFCNMPGHVFGRHNGDIACDHYNRWEEDLDLIKEMGVEAYRFSLAWPRIIPDGFGPINEKGLDFYDRLVDGCKARGIKTYATLYHWDLPLTLMGDGGWASRSTAHAFQRYAKTVMARLGDRLDAVATFNIPWCAVWLSHLYGVHAPGERNMEAALAAMHHINLAHGFGVEASRHVAPKVPVGLVLNAHSAIPASDGEADLKAAERAFQFHNGAFFDPVFKGEYPAEMMEALGDRMPVVEAEDLGIISQKLDWWGLNYYTPMRVADDATPGVEFPATMPAPAVSDVKTDIGWEVYAPALHTLVETLYERYDLPECYITENGACYNMGVENGQVNDQPRLDYYAEHLGIVADLIRDGYPMRGYFAWSLMDNFEWAEGYRMRFGLVHVDYQTQVRTVKNSGKWYSALASGFPKGNHGVAKG	functionality as thioligases
E171S: acid/base position (E171) mutant of Abg (protein, UniProt P12614 1-459, looked up, variant E171S) Beta-glucosidase: MTDPNTLAARFPGDFLFGVATASFQIEGSTKADGRKPSIWDAFCNMPGHVFGRHNGDIACDHYNRWEEDLDLIKEMGVEAYRFSLAWPRIIPDGFGPINEKGLDFYDRLVDGCKARGIKTYATLYHWDLPLTLMGDGGWASRSTAHAFQRYAKTVMARLGDRLDAVATFNSPWCAVWLSHLYGVHAPGERNMEAALAAMHHINLAHGFGVEASRHVAPKVPVGLVLNAHSAIPASDGEADLKAAERAFQFHNGAFFDPVFKGEYPAEMMEALGDRMPVVEAEDLGIISQKLDWWGLNYYTPMRVADDATPGVEFPATMPAPAVSDVKTDIGWEVYAPALHTLVETLYERYDLPECYITENGACYNMGVENGQVNDQPRLDYYAEHLGIVADLIRDGYPMRGYFAWSLMDNFEWAEGYRMRFGLVHVDYQTQVRTVKNSGKWYSALASGFPKGNHGVAKG	functionality as thioligases
E171T: acid/base position (E171) mutant of Abg (protein, UniProt P12614 1-459, looked up, variant E171T) Beta-glucosidase: MTDPNTLAARFPGDFLFGVATASFQIEGSTKADGRKPSIWDAFCNMPGHVFGRHNGDIACDHYNRWEEDLDLIKEMGVEAYRFSLAWPRIIPDGFGPINEKGLDFYDRLVDGCKARGIKTYATLYHWDLPLTLMGDGGWASRSTAHAFQRYAKTVMARLGDRLDAVATFNTPWCAVWLSHLYGVHAPGERNMEAALAAMHHINLAHGFGVEASRHVAPKVPVGLVLNAHSAIPASDGEADLKAAERAFQFHNGAFFDPVFKGEYPAEMMEALGDRMPVVEAEDLGIISQKLDWWGLNYYTPMRVADDATPGVEFPATMPAPAVSDVKTDIGWEVYAPALHTLVETLYERYDLPECYITENGACYNMGVENGQVNDQPRLDYYAEHLGIVADLIRDGYPMRGYFAWSLMDNFEWAEGYRMRFGLVHVDYQTQVRTVKNSGKWYSALASGFPKGNHGVAKG	functionality as thioligases
E171F: acid/base position (E171) mutant of Abg (protein, UniProt P12614 1-459, looked up, variant E171F) Beta-glucosidase: MTDPNTLAARFPGDFLFGVATASFQIEGSTKADGRKPSIWDAFCNMPGHVFGRHNGDIACDHYNRWEEDLDLIKEMGVEAYRFSLAWPRIIPDGFGPINEKGLDFYDRLVDGCKARGIKTYATLYHWDLPLTLMGDGGWASRSTAHAFQRYAKTVMARLGDRLDAVATFNFPWCAVWLSHLYGVHAPGERNMEAALAAMHHINLAHGFGVEASRHVAPKVPVGLVLNAHSAIPASDGEADLKAAERAFQFHNGAFFDPVFKGEYPAEMMEALGDRMPVVEAEDLGIISQKLDWWGLNYYTPMRVADDATPGVEFPATMPAPAVSDVKTDIGWEVYAPALHTLVETLYERYDLPECYITENGACYNMGVENGQVNDQPRLDYYAEHLGIVADLIRDGYPMRGYFAWSLMDNFEWAEGYRMRFGLVHVDYQTQVRTVKNSGKWYSALASGFPKGNHGVAKG	functionality as thioligases
E171M: acid/base position (E171) mutant of Abg (protein, UniProt P12614 1-459, looked up, variant E171M) Beta-glucosidase: MTDPNTLAARFPGDFLFGVATASFQIEGSTKADGRKPSIWDAFCNMPGHVFGRHNGDIACDHYNRWEEDLDLIKEMGVEAYRFSLAWPRIIPDGFGPINEKGLDFYDRLVDGCKARGIKTYATLYHWDLPLTLMGDGGWASRSTAHAFQRYAKTVMARLGDRLDAVATFNMPWCAVWLSHLYGVHAPGERNMEAALAAMHHINLAHGFGVEASRHVAPKVPVGLVLNAHSAIPASDGEADLKAAERAFQFHNGAFFDPVFKGEYPAEMMEALGDRMPVVEAEDLGIISQKLDWWGLNYYTPMRVADDATPGVEFPATMPAPAVSDVKTDIGWEVYAPALHTLVETLYERYDLPECYITENGACYNMGVENGQVNDQPRLDYYAEHLGIVADLIRDGYPMRGYFAWSLMDNFEWAEGYRMRFGLVHVDYQTQVRTVKNSGKWYSALASGFPKGNHGVAKG	functionality as thioligases
E171L: acid/base position (E171) mutant of Abg (protein, UniProt P12614 1-459, looked up, variant E171L) Beta-glucosidase: MTDPNTLAARFPGDFLFGVATASFQIEGSTKADGRKPSIWDAFCNMPGHVFGRHNGDIACDHYNRWEEDLDLIKEMGVEAYRFSLAWPRIIPDGFGPINEKGLDFYDRLVDGCKARGIKTYATLYHWDLPLTLMGDGGWASRSTAHAFQRYAKTVMARLGDRLDAVATFNLPWCAVWLSHLYGVHAPGERNMEAALAAMHHINLAHGFGVEASRHVAPKVPVGLVLNAHSAIPASDGEADLKAAERAFQFHNGAFFDPVFKGEYPAEMMEALGDRMPVVEAEDLGIISQKLDWWGLNYYTPMRVADDATPGVEFPATMPAPAVSDVKTDIGWEVYAPALHTLVETLYERYDLPECYITENGACYNMGVENGQVNDQPRLDYYAEHLGIVADLIRDGYPMRGYFAWSLMDNFEWAEGYRMRFGLVHVDYQTQVRTVKNSGKWYSALASGFPKGNHGVAKG	functionality as thioligases

Biological target: T1, Cex E127A (Cellulomonas fimi, UniProt P07986, E168A)
T1 sequence (P07986 42-484 E168A): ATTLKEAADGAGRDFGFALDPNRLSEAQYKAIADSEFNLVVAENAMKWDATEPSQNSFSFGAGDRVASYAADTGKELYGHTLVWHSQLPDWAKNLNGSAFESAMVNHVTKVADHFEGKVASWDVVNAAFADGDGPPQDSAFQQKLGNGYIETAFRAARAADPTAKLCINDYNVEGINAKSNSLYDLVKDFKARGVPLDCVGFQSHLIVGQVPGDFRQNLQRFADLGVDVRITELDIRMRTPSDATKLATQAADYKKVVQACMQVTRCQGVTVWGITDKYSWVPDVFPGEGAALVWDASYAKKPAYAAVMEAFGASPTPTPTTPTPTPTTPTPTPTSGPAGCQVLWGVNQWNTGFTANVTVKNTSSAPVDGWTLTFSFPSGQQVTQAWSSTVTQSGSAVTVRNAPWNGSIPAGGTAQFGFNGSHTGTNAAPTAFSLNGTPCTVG
Experiment: Functional donors and acceptors for Cex E127A
Type: biochemical

Molecule	acceptor function	donor function
O=[N+]([O-])c1ccc(O[C@@H]2O[C@H](CO)[C@@H](O[C@@H]3O[C@H](CO)[C@@H](S)[C@H](O)[C@H]3O)[C@H](O)[C@H]2O)cc1 [pNP 4′-deoxy4′-thio-β-cellobioside, pNP 4′-deoxy-4′-thio-β-cellobioside]	Functional acceptors	Functional donors
O=[N+]([O-])c1ccc(O[C@@H]2O[C@H](CO)[C@@H](O[C@@H]3O[C@H](CO)[C@@H](O)[C@H](O)[C@H]3O)[C@H](O)[C@H]2O)c([N+](=O)[O-])c1 [DNP β-cellobioside]		Functional donors
OC[C@H]1O[C@@H](O[C@H]2[C@H](O)[C@@H](O)C(O)O[C@@H]2CO)[C@H](O)[C@@H](O)[C@@H]1S (stereo partly shown) [4′-deoxy-4′-thio-cellobiose]	Functional acceptors	
